# T1: progastrin-releasing peptide (31-98) (ProGRP31-98) (UniProt P07492 54-121)
# T1 sequence: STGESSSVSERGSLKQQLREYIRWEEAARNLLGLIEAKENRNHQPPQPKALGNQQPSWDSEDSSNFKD
# Tests used:
# [1] = biological target: T2, neuron specific enolase (NSE) (UniProt P09104 2-434); experiment: SPR; NSE 125 nM to 2 uM; SPR (Biacore X100, SA chip); 1x PBS pH 7.5, 0.1% Tween 20, 5 mM MgCl2 (NSE) or 2 mM MgCl2 (ProGRP31-98); temperature not stated; details: protein: recombinant; chain copies: 2; label: 5' biotin-TEG
# [2] = biological target: T1, progastrin-releasing peptide (31-98) …; experiment: SPR; 2 mM MgCl2; kon 8.64e3 (printed Ms-1), koff 1.321e-3 s-1; SPR (Biacore X100, SA chip); 1x PBS pH 7.5, 0.1% Tween 20, 5 mM MgCl2 (NSE) or 2 mM MgCl2 (ProGRP31-98); temperature not stated; details: protein: commercial; label: 5' biotin-TEG
# [3] = biological target: T2, neuron specific enolase (NSE); experiment: SPR; 5 mM MgCl2; kon 1.21e4 (printed Ms-1), koff 1.004e-3 s-1; SPR (Biacore X100, SA chip); 1x PBS pH 7.5, 0.1% Tween 20, 5 mM MgCl2 (NSE) or 2 mM MgCl2 (ProGRP31-98); temperature not stated; details: protein: recombinant; chain copies: 2; label: 5' biotin-TEG
# T2 sequence (P09104 2-434): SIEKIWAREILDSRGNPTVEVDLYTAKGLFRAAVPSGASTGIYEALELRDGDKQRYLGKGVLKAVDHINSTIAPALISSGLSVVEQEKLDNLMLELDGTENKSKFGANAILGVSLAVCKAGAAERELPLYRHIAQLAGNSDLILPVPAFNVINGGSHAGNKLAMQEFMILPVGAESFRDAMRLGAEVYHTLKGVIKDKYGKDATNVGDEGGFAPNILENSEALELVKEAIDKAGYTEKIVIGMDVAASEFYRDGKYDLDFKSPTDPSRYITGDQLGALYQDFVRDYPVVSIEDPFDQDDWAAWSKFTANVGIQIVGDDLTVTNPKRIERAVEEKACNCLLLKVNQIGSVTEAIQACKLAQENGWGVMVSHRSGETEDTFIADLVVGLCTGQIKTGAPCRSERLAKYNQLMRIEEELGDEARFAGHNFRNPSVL
binder,measurement,setting,value
TCAGGTGCAGTTCTCGACTCGGTCTTGATGTGGGT (ssDNA) [DNA control],binding result,[1],no binding
CATGCGGAGTAGATTCGAGCCCAGATAGTCCCTGGTTATTTCCTTAGG (ssDNA) [ProGRP-48-5BioTEG],Kd,[2],153 nM
TCACACACGGACCTCTCCTACATTAATTGCGCATTTCGTT (ssDNA) [NSE-Apt5-5BioTEG],Kd,[3],~83 nM

# — article PMC9041927, “Aptamer based surface plasma resonance assay for direct detection of neuron specific enolase and progastrin-releasing peptide (31-98)†”
